# Results from US20220242953A1 (JIANGSU HENGRUI MEDICINE, published 2022).
# B1: bispecific antibody 113 (AFF 3-2) (bispecific antibody)
# chain 1: not shown
# chain 2: QTVVTQEPSFSVSPGGTVTLTCGLSSGSVSTSHYPSWYQQTPGQAPRMLIYNTNTRSSGVPDRFSGSILGNKAALTITGAQADDESDYYCAIHVDRDIWVFGGGTKLTVLGGGGSGGGGSGGGGSQVQLVQSGGGVVQPGTSLRLSCAASGFIFSSSAMHWVRQAPGKGLEWVAVISYDGSNKYYVDSVKGRFTISRDNSKNTLYLQMNSLRAEDTAVYYCARSARLYASFDYWGQGALVTVSSGGGDKTHTCPPCPAPEAAGGPSVFLFPPKPKDTLMISRTPEVTCVVVDVSHEDPEVKFNWYVDGVEVHNAKTKPREEQYNSTYRVVSVLTVLHQDWLNGKEYKCKVSNKALPAPIEKTISKAKGQPREPQVCTLPPSREEMTKNQVSLSCAVKGFYPSDIAVEWESNGQPENNYKTTPPVLDSDGSFFLVSKLTVDKSRWQQGNVFSCSVMHEALHNHYTQKSLSLSPGK
# notes: B7H3 bivalent CD3-B7H3 bispecific antibody, CD3 VH HRH-2
# B2: NC2 (negative control bispecific antibody; B7H3 binding domain retained, CD3 binding domain replaced with a non-related antibody) (bispecific antibody)
# chain 1: not shown
# chain 2: B1 chain 2
# notes: Control arm said to be anti-fluorescein
# B3: bispecific antibody 154 (AFF3-4) (bispecific antibody)
# chain 1: not shown
# chain 2: B1 chain 2
# notes: B7H3 bivalent CD3-B7H3 bispecific antibody, CD3 VH HRH-4
# B4: bispecific antibody 177 (AFF3-7) (bispecific antibody)
# chain 1: not shown
# chain 2: B1 chain 2
# notes: B7H3 bivalent CD3-B7H3 bispecific antibody, CD3 VH HRH-7
# B5: bispecific antibody 131 (AFF3-1) (bispecific antibody)
# chain 1: not shown
# chain 2: B1 chain 2
# notes: B7H3 bivalent CD3-B7H3 bispecific antibody, CD3 VH HRH-1; two-chain knob/hole Fc format
# B6: NC1 (negative control bispecific antibody; B7H3 binding domain replaced with a non-related antibody, CD3 binding domain retained) (bispecific antibody)
# chain 1: not shown
# chain 2: DIQMTQSPSSVSASVGDRVTITCRASQDIANYLSWYQQKPGKSPKLLIYGTSNLEVGVPSRFSGSRSGTDFTLTISSLQPEDFATYYCLQDKEFPRTFGGGTKVEIKGGGGSGGGGSGGGGSEVQLVESGGGLVQPGGSLRLSCAASGFTFSHYYMAWVRQAPGKGLEWVTSISYEGDITYYGDSVKGRFTISRDNSKNTLYLQMNSLRAEDTATYYCASQTLRESFDYWGQGTLVTVSSGGGDKTHTCPPCPAPEAAGGPSVFLFPPKPKDTLMISRTPEVTCVVVDVSHEDPEVKFNWYVDGVEVHNAKTKPREEQYNSTYRVVSVLTVLHQDWLNGKEYKCKVSNKALPAPIEKTISKAKGQPREPQVCTLPPSREEMTKNQVSLSCAVKGFYPSDIAVEWESNGQPENNYKTTPPVLDSDGSFFLVSKLTVDKSRWQQGNVFSCSVMHEALHNHYTQKSLSLSPGK
# notes: Control arm said to be an anti-fluorescein antibody; CD3 scFv with HRH-3
# B7: MGD009 (positive control bispecific antibody, three chains) (bispecific antibody)
# chain 1: DIQLTQSPSFLSASVGDRVTITCKASQNVDTNVAWYQQKPGKAPKALIYSASYRYSGVPSRFSGSGSGTDFTLTISSLQPEDFATYYCQQYNNYPFTFGQGTKLEIKGGGSGGGGEVQLVESGGGLVQPGGSLRLSCAASGFTFSTYAMNWVRQAPGKGLEWVGRIRSKYNNYATYYADSVKDRFTISRDDSKNSLYLQMNSLKTEDTAVYYCVRHGNFGNSYVSWFAYWGQGTLVTVSSGGCGGGEVAALEKEVAALEKEVAALEKEVAALEKGGGDKTHTCPPCPAPEAAGGPSVFLFPPKPKDTLMISRTPEVTCVVVDVSHEDPEVKFNWYVDGVEVHNAKTKPREEQYNSTYRVVSVLTVLHQDWLNGKEYKCKVSNKALPAPIEKTISKAKGQPREPQVYTLPPSREEMTKNQVSLWCLVKGFYPSDIAVEWESNGQPENNYKTTPPVLDSDGSFFLYSKLTVDKSRWQQGNVFSCSVMHEALHNHYTQKSLSLSPGK
# chain 2: QAVVTQEPSLTVSPGGTVTLTCRSSTGAVTTSNYANWVQQKPGQAPRGLIGGTNKRAPWTPARFSGSLLGGKAALTITGAQAEDEADYYCALWYSNLWVFGGGTKLTVLGGGGSGGGGEVQLVESGGGLVQPGGSLRLSCAASGFTFSSFGMHWVRQAPGKGLEWVAYISSDSSAIYYADTVKGRFTISRDNAKNSLYLQMNSLRDEDTAVYYCGRGRENIYYGSRLDYWGQGTTVTVSSGGCGGGKVAALKEKVAALKEKVAALKEKVAALKE
# chain 3: not shown
# notes: B7H3 monovalent B7H3xCD3 DART-Fc
# How the values were obtained:
# [1] = biological target: T1, Human CD3 antigen for detection (SinoBiological cat #CT038-H2508H); human CD3 epsilon-His and human CD3 … (human, UniProt P07766 23-126; P04234 22-105); assay: Biacore T200 SPR, bispecific antibody captured, CD3 antigen as analyte, 1:1 Langmuir fit
# T1 construct: Bought antigen
# Experimental: (§1) The detection of antibody affinity to B7H3 and CD3 was performed in the form of capture antibody. BsAb was captured by CM5 biosensor chip (Cat. #BR-1005-30, GE) or Protein A (Cat. #29127556, GE) biosensor chip coupled with Anti-Human IgG Antibody (Cat. #BR-1008-39, Lot. #10260416, GE), and then each antigen flowed through the surface of the chip. The reaction signals were detected in real time with the Biacore T200 instrument to obtain the binding and dissociation curves. After the dissociation of each experimental cycle was completed, the chip was washed and regenerated with regeneration buffer Glycine1.5 (Cat #BR100354, GE) or 3 M MgCl₂ (from Human antibody capture kit, Cat. #BR100839, GE). The data were fitted with the (1:1) Langmuir model using GE Biacore T200 Evaluation version 3.0 software, and the affinity values were obtained.
# [2] = biological target: T2, human B7H3 on the cell surface (A498, CT26/hB7H3, U87, Detroit562 cells) (human, UniProt Q5ZPR3 29-534); assay: FACS on A498 cells expressing human B7H3, APC anti-human IgG Fc detection, geometric mean fluorescence
# T2 construct: Endogenous on A498, U87 and Detroit562 tumor cells, over-expressed on CT26/hB7H3
# T2 sequence: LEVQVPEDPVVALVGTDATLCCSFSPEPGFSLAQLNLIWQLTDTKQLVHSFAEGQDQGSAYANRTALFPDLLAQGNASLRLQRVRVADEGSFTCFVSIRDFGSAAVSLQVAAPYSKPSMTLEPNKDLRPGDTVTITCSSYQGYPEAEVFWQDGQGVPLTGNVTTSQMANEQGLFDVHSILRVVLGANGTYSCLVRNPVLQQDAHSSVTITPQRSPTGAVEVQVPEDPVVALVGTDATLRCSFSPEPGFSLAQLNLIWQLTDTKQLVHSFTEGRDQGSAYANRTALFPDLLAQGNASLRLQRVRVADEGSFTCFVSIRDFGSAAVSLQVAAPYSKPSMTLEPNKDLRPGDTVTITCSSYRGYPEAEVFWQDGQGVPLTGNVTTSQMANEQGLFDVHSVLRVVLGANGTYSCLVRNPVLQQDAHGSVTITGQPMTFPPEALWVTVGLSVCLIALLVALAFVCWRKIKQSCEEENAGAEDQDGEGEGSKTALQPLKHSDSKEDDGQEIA
# Experimental: (§2) The ability of bispecific antibodies to bind to cell surface antigens was detected by FACS method.
# (§3) FACS buffer (98% PBS, 2% FBS) was added into a 96-well U-shaped bottom plate (corning, 3795) to resuspend the cells, the serially diluted antibodies were added, incubated at 4° C. for 1 hour, and the plate was washed with FACS buffer twice. Then APC anti-human IgG Fc Antibody (biolegend, Cat #409306, dilution at 1:50) was added into each well, incubated at 4° C. for 30 minutes, washed twice, the cells were resuspended in FACS buffer, and finally the fluorescence signal values were read by FACS CantoII (BD).
# [3] = biological target: T2, human B7H3 on the cell surface (A498, …); assay: FACS on CT26/hB7H3 cells over-expressing human B7H3, APC anti-human IgG Fc detection, geometric mean fluorescence
# Experimental: as §2, §3
# [4] = biological target: human CD3 on the cell surface (Jurkat recombinant cells; T cells of PBMC) (human, UniProt P07766 23-207; P04234 22-171); assay: FACS on Jurkat recombinant cells expressing CD3, APC anti-human IgG Fc detection, geometric mean fluorescence
# Experimental: as §2, §3
# [5] = biological target: T2, human B7H3 on the cell surface (A498, …); assay: cell-based or functional assay
# [6] = biological target: T1, Human CD3 antigen for detection …; assay: Biacore T200 SPR, bispecific antibody captured, antigen as analyte, 1:1 Langmuir fit
# Experimental: as §1
# [7] = biological target: T3, Monkey B7H3 antigen for detection (SinoBiological cat #90806-C08H) (monkey (cyno)); assay: as above
# T3 construct: Bought antigen; also called monkey (cyno) B7H3
# T3 chain: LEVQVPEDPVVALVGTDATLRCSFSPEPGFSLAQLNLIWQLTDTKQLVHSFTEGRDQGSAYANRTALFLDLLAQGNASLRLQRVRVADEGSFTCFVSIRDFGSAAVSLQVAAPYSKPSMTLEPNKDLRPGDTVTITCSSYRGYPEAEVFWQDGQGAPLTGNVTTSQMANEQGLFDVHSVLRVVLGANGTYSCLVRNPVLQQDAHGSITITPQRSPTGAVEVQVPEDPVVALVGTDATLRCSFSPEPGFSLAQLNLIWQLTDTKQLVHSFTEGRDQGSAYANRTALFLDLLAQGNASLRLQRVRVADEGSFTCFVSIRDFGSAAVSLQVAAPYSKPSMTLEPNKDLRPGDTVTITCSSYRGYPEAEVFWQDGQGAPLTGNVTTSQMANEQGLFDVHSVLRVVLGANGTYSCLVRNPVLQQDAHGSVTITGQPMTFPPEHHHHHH
# Experimental: as §1
# [8] = biological target: T4, Human B7H3 antigen for detection (SinoBiological cat #11188-H08H) (human, UniProt Q5ZPR3 29-461); assay: as above
# T4 construct: Bought antigen
# T4 sequence: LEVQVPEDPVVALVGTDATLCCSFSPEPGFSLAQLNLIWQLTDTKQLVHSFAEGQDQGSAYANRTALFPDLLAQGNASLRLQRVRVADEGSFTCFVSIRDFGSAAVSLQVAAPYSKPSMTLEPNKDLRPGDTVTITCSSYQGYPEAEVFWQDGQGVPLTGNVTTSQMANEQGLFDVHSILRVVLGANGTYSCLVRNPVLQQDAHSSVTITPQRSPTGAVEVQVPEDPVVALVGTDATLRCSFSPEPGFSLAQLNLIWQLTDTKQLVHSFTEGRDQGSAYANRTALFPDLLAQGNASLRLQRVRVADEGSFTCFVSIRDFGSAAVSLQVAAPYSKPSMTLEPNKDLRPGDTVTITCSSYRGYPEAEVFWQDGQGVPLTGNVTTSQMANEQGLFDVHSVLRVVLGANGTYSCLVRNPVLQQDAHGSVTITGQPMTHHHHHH
# Experimental: as §1
# [9] = biological target: T5, Monkey CD3 antigen for detection (Acro biosystem cat #CDD-C52W4); monkey CD3 epsilon-His and monkey CD3 … (monkey (cyno), UniProt Q95LI5 22-117; Q95LI8 22-105); assay: as above
# T5 construct: Bought antigen
# Experimental: as §1
# human CD3 on the cell surface (Jurkat recombinant cells; T cells of PBMC), sequence (P07766 23-207, chain 1 of 2): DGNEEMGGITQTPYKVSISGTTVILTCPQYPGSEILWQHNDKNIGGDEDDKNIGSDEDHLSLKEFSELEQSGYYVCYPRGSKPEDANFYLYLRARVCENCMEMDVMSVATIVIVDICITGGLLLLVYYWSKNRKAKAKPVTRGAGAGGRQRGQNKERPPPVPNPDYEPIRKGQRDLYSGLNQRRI
# human CD3 on the cell surface (Jurkat recombinant cells; T cells of PBMC), sequence (P04234 22-171, chain 2 of 2): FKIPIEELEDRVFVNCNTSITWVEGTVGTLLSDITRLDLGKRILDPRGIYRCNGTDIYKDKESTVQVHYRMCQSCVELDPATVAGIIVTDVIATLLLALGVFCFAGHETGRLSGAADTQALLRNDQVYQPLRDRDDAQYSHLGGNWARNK
# T1 sequence (P07766 other isoform, or with tags, fused parts or gaps H2508H H2508H, chain 1 of 2): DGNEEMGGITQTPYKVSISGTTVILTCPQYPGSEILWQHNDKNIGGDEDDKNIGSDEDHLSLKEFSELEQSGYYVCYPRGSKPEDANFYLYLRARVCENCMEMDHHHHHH
# T1 sequence (P04234 other isoform, or with tags, fused parts or gaps H2508H H2508H, chain 2 of 2): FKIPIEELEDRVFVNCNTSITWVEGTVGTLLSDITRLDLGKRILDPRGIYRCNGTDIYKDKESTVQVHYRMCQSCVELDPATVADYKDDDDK
# T5 sequence (Q95LI5 other isoform, or with tags, fused parts or gaps mutant, chain 1 of 2): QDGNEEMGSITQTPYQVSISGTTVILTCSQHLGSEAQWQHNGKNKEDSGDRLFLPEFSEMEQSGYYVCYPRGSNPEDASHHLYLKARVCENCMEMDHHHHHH
# T5 sequence (Q95LI8 other isoform, or with tags, fused parts or gaps mutant, chain 2 of 2): as the sequence (P04234 other isoform, or with tags, fused parts or gaps H2508H H2508H, chain 2 of 2) above, with I5V, N15K, I20V, S32T, D33N, I34N, T64A, S74N, V83L counted along it
binder,measurement,setting,value
B1,Kd,[1],77.2 nM
B2,EC50 (read off the curve),[2],~30 nM
same,EC50 (read off the curve),[3],~4 nM
same,binding result,[4],no binding (tested: about 8000 nM (log 3.9 on the axis))
B3,Kd,[1],69.7 nM
B4,Kd,[1],162 nM
B5,Kd,[1],40.7 nM
B6,binding result,[2],no binding (tested: about 5000 nM (log 3.7 on the axis))
same,"Emax (%), PBMC-mediated killing of A498 cells (B7H3 high)",[5],20.9%
same,"Emax (%), PBMC-mediated killing of Detroit562 cells (B7H3 low)",[5],0.95%
same,"Emax (%), PBMC-mediated killing of U87 cells (B7H3 intermediate)",[5],3.8%
same,"IC50 (nM), PBMC-mediated killing of A498 cells (B7H3 high)",[5],> 300 nM
same,"IC50 (nM), PBMC-mediated killing of Detroit562 cells (B7H3 low)",[5],> 300 nM
same,"IC50 (nM), PBMC-mediated killing of U87 cells (B7H3 intermediate)",[5],> 300 nM
same,EC50 (read off the curve),[4],~70 nM
B7,Kd,[6],78.1 nM
same,Kd,[7],2.65 nM
same,Kd,[8],1.96 nM
same,Kd,[9],4.94 nM
same,EC50 (read off the curve),[3],~10 nM
same,EC50 (read off the curve),[4],~100 nM
